The values below come from patent US20200407442A1 (WUXI BIOLOGICS IRELAND, published 2020).

Test [1] addresses T1, full-length human LAG-3 on cells (human, UniProt P18627 23-525).
T1 construct: Expressed on Flp-In-293, CHO or 293F transfectants; also called hPro1.FL; cell surface human LAG-3
T1 sequence: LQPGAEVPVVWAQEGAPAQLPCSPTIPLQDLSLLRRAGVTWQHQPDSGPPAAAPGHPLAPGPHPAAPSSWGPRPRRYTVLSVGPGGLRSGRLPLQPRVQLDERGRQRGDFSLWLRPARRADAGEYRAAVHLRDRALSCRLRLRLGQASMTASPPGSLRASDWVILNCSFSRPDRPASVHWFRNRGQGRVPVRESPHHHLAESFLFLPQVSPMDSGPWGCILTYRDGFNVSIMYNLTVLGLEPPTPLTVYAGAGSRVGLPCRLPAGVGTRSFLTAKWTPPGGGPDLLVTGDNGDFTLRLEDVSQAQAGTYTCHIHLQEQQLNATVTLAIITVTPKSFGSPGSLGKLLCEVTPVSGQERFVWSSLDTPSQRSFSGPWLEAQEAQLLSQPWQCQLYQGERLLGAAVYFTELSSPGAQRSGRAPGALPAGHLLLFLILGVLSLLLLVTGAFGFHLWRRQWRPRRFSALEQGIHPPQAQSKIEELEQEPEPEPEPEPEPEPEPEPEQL
The test can be described thus: FACS affinity on Flp-In-293 cells expressing human LAG-3. As to the method:
Antibody binding affinity to cell surface LAG-3 was measured by FACS analysis. Flp-In-293 cells expressing human LAG-3 were transferred in to 96-well U-bottom plates at a density of 5×10⁵ cells/mL. Tested antibodies were serially diluted in wash buffer (1×PBS/1%BSA) and incubated with cells at 4° C. for 1 h. The secondary antibody goat anti-human IgG Fc FITC (3.5 moles FITC per mole IgG) was added and incubated at 4° C. in the dark for 0.5 h. The cells were then washed once and resuspended in 1×PBS/1%BSA, and analyzed by flow cytometry. Fluorescence intensity will be converted to bound molecules/cell based on the quantitative beads (QuantumTM MESF Kits, Bangs Laboratories, Inc.). Affinity was calculated using Graphpad Prism 5.

The target in test [2] is T2, human LAG-3-ECD.D12.mFc mutant A59G (human, UniProt P18627 37-252).
T2 construct: construct limits as for m26
T2 chain: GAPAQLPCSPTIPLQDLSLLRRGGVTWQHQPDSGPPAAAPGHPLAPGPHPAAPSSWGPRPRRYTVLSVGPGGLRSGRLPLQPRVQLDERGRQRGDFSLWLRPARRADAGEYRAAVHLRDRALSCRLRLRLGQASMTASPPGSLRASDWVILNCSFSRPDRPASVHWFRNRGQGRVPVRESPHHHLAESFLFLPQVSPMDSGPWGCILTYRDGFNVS
The test can be described thus: ELISA, antibody coated, LAG-3 D12.mFc mutant in supernatant, normalised to control mutants. As to the method:
(§1) For ELISA binding assay, the antibody 1.53.3-uAb-IgG4k or 3.40.19-uAb-hIgG4L (2 μg/mL) was coated in plates. After interacting with the supernatant that contains quantified LAG-3 mutants or human LAG-3-ECD.D12.mFc protein, HRP conjugated anti-mFc antibody (1:5000; Bethyl, USA) was added as a detection antibody. Absorbance was normalized according to the average absorbance of control mutants. After setting an additional cutoff to the binding fold change (<0.75), the final determined epitope residues were identified.

For test [3], the target named is T3, human LAG-3-ECD.D12.mFc mutant W63A (human, UniProt P18627 37-252).
T3 construct: Alanine scanning mutant; construct limits as for m26
T3 chain: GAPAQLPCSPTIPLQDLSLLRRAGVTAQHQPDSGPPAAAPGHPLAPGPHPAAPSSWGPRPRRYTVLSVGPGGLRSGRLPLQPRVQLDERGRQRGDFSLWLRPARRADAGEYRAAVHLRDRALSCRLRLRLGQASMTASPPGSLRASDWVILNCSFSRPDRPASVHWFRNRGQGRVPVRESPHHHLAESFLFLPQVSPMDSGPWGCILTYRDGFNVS
The test is described as above. On the procedure:
as §1

The target in test [4] is T4, human LAG-3-ECD.D12.mFc mutant L122A (human, UniProt P18627 37-252).
T4 construct: Alanine scanning mutant; construct limits as for m26
T4 chain: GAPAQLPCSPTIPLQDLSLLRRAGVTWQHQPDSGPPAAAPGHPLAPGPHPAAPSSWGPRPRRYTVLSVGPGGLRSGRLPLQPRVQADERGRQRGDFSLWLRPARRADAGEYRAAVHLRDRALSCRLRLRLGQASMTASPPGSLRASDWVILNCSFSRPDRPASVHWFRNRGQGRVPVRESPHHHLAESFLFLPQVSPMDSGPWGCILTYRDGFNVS
The description is as above. As to the method: as §1

Test [5] addresses T5, human LAG-3-ECD.D12.mFc mutant Y147A (human, UniProt P18627 37-252).
T5 construct: Alanine scanning mutant; construct limits as for m26
T5 chain: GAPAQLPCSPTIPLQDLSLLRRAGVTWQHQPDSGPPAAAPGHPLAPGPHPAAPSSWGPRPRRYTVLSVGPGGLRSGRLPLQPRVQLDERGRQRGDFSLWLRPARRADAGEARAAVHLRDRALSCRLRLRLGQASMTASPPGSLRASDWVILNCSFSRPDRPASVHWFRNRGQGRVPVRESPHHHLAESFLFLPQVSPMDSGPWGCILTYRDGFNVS
The test is described as above. As to the method: as §1

Test [6] addresses T6, human LAG-3-ECD.D12.mFc mutant L153A (human, UniProt P18627 37-252).
T6 construct: Alanine scanning mutant; construct limits as for m26
T6 chain: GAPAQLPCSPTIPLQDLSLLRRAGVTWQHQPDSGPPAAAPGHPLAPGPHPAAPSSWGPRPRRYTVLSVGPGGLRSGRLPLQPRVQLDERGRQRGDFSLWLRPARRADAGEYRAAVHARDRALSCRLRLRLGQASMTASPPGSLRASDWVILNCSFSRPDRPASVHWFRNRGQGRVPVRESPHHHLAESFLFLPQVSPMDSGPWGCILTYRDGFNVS
Described as above. On the procedure: as §1

For test [7], the target named is T7, human LAG-3-ECD.D12.mFc mutant L164A (human, UniProt P18627 37-252).
T7 construct: Alanine scanning mutant; construct limits as for m26
T7 chain: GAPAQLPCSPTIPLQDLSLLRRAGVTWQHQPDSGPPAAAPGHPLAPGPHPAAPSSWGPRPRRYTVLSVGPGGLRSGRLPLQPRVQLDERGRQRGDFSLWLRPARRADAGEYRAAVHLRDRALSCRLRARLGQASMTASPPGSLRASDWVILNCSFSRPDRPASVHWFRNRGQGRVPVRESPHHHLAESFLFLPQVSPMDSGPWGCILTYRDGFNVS
Described as above. As to the method: as §1

B1: 3.40.19-uAb-IgG4L (antibody, V domains shown)
VH: QLQLQESGPGLVKPSETLSLTCTVSGDSISSTSYYWGWIRQPPGKGLEWIGSFYYSGSTYYNPSLKSRVTISVDTSKNQFSLKLNSVTAADTAVYYCARMQLWSYDVDVWGQGTTVTVSS
VL: QSALTQPASVSGSPGQSITISCTGTSSDVGGYDYVAWYQQHPGKVPKLMIYDVSERPSGVSNRFSGSKSGNTASLTISGLQAEDEADYYCSSYTSTTTLVVFGGGTKLSVL
notes: Fully human antibody from OMT rats; IgG4 lambda by its name; also called 3.40.19-uAb-hIgG4L
Regarding B1, the Kd in test [1] amounted to 53 pM. Further, the “Fold Change” value is 0.542 in test [2]; 0.171 in test [3]; 0.391 in test [4]; 0.19 in test [5]; 0.632 in test [6]; 0.278 in test [7].

B2: 1.53.3-uAb-IgG4k (antibody, V domains shown)
VH: QVQLQQWGAGLLKPSETLSLTCGVYGGSFSGYYWSWIRQPPGMGLEWIGEINHRGNTNYNPSLKSRVTISEDTSKNQFSLRLSSVTAADTAVYFCTRGEDYSDYDYYGDFWGQGTLVTVSS
VL: EIVLTQSPATLSLSQGERATLSCRASQSISSYLAWYQQKPGQAPRLLIYAASNRATGIPARFSGSGSGTDFTLTISSLEPEDFAIYYCQQRSNWPLTFGGGTKVEIK
notes: Fully human antibody from OMT rats; IgG4 kappa by its name
In the case of B2, in test [1], binding was put at a Kd of 160 pM. In addition, the “Fold Change” value in test [2] came to 0.718; in test [3], 0.585; in test [4], 0.607; in test [5], 0.637; in test [6] it was 0.749; in test [7], 0.586.
